Test results taken from IntAct's records for PubMed 31515488.

B1: Microtubule-associated tumor suppressor candidate 2 (Homo sapiens), Q5JR59-3 (parent)
chain: MGHCCCKPYNCLQCLDKTNESALVKEKELSIELANIRDEVAFHTAKCEKLQKEKEELERRFEDEVKRLGWQQQAELQELEERLQLQFEAEMARLQEEHGDQLLSIRCQHQEQVEDLTASHDAALLEMENNHTVAITILQDDHDHKVQELMSTHELEKKELEENFEKLRLSLQDQVDTLTFQSQSLRDRARRFEEALRKNTEEQLEIALAPYQHLEEDMKSLKQVLEMKNQQIHEQEKKILELEKLAEKNIILEEKIQVLQQQNEDLKARIDQNTVVTRQLSEENANLQEYVEKETQEKKRLSRTNEELLWKLQTGDPTSPIKLSPTSPVYRGSSSGPSSPARVSTTPR
partner: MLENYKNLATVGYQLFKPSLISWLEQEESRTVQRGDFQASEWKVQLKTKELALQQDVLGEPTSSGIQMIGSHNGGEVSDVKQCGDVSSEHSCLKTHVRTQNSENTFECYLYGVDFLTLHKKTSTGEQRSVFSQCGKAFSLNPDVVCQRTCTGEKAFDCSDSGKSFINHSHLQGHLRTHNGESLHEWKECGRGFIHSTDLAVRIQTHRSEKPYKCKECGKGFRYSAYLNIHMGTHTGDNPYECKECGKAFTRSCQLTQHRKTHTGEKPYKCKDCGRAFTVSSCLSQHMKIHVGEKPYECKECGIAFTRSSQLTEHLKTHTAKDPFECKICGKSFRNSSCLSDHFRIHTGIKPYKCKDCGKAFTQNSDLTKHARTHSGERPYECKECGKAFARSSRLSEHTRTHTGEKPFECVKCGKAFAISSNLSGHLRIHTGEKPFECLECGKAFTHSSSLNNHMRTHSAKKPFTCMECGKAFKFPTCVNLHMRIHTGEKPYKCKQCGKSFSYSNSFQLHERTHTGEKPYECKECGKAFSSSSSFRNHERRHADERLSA
B2: Dynein light chain 2, cytoplasmic (Homo sapiens), Q96FJ2 (parent)
chain: MSDRKAVIKNADMSEDMQQDAVDCATQAMEKYNIEKDIAAYIKKEFDKKYNPTWHCIVGRNFGSYVTHETKHFIYFYLGQVAILLFKSG
partner: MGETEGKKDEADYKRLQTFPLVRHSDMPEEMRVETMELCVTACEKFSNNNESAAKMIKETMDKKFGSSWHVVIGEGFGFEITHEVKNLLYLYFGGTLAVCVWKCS
B3: Ras association domain-containing protein 7 (Homo sapiens), Q02833 (parent)
chain: MLLGLAAMELKVWVDGIQRVVCGVSEQTTCQEVVIALAQAIGQTGRFVLVQRLREKERQLLPQECPVGAQATCGQFASDVQFVLRRTGPSLAGRPSSDSCPPPERCLIRASLPVKPRAALGCEPRKTLTPEPAPSLSRPGPAAPVTPTPGCCTDLRGLELRVQRNAEELGHEAFWEQELRREQAREREGQARLQALSAATAEHAARLQALDAQARALEAELQLAAEAPGPPSPMASATERLHQDLAVQERQSAEVQGSLALVSRALEAAERALQAQAQELEELNRELRQCNLQQFIQQTGAALPPPPRPDRGPPGTQGPLPPAREESLLGAPSESHAGAQPRPRGGPHDAELLEVAAAPAPEWCPLAAQPQAL
B4: Protein FAM9B (Homo sapiens), Q8IZU0 (parent)
chain: MAAWGKKHAGKDPVRDECEERNRFTETREEDVTDEHGEREPFAETDEHTGANTKKPEDTAEDLTAKRKRMKMDKTCSKTKNKSKHALRKKQLKRQKRDYIHSLKLLNVLEEYITDEQKEEEEEEGEEEELIRIFQEQQKKWQQYRSVRRERLKEMKLLRDQFVKALEDFEDLCDRVFSDEDSELDN
partner: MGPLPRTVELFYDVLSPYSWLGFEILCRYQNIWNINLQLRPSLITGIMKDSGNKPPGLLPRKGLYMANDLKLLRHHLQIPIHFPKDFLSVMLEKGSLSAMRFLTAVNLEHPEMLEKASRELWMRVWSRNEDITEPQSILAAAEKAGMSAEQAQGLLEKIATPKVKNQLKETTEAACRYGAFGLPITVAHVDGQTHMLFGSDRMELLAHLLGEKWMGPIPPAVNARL
B5: Cyclin-H (Homo sapiens), P51946 (parent)
chain: MYHNSSQKRHWTFSSEEQLARLRADANRKFRCKAVANGKVLPNDPVFLEPHEEMTLCKYYEKRLLEFCSVFKPAMPRSVVGTACMYFKRFYLNNSVMEYHPRIIMLTCAFLACKVDEFNVSSPQFVGNLRESPLGQEKALEQILEYELLLIQQLNFHLIVHNPYRPFEGFLIDLKTRYPILENPEILRKTADDFLNRIALTDAYLLYTPSQIALTAILSSASRAGITMESYLSESLMLKENRTCLSQLLDIMKSMRNLVKKYEPPRSEEVAVLKQKLERCHSAELALNVITKKRKGYEDDDYVSKKSKHEEEEWTDDDLVESL
partner: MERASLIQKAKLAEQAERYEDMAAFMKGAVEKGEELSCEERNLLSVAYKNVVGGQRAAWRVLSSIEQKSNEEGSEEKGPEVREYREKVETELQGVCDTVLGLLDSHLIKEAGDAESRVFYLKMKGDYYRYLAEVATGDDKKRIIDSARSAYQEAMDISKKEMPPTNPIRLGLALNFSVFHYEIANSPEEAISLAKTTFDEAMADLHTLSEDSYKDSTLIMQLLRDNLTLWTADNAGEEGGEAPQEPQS
B6: Fibronectin type III and SPRY domain-containing protein 2 (Homo sapiens), A1L4K1 (parent)
chain: MEEESGEELGLDRSTPKDFHFYHMDLYDSEDRLHLFPEENTRMRKVVQAEMANESRGAGDGKAQRDLQEEVDELVHLYGLEDDHELGDEFVDENIPRTGVSEYPPYMMKRRDPAREQRDWRLSGEAAEAEDLGFGGWGSAGQCQDLREAYRYTHGRASEEYECYVIPEEEDEEEAADVFCVTCKTPIRAFQKVFDEHKEHEVIPLNEALESAKDEIHKNMYKLEKQIIEMENFANHLEEVFITVEENFGKQEQNFESHYNEILETLAQKYEEKIQALGEKKKEKLEALYGQLVSCGENLDTCKELMETIEEMCHEEKVDFIKDAVAMADRLGKFLKTKTDVEISAQPEFEDQTLDFSDVEQLMGSINTIPAPSAPVINPQVPNSATGSSVRVCWSLYSDDTVESYQLSYRPVQDSSPGTDQAEFTVTVKETYCSVTNLVPNTQYEFWVTAHNRAGPSPSSERAVYMTAPSPPIIKTKEIRSCEEAVLICWESGNLNPVDSYTVELTQAESPEASGVTESVVGIPTCESVVQLQPGRSYIIYVRALNMGGPSVRSEPATVHTIGSYFRLNKDTCHPWLTISEDGLTAVRSERRTPARELSPSDTHFTRCVAVMGNLIPVRGHHYWEVEVDEHLDYRVGVAFADVRKQEDLGANCLSWCMRHTFASSRHKYEFLHNRTTPDIRITVPPKKIGILLDYEHSKLSFFNVDLSQHLYTFSCQLHEFVHPCFSLEKPGCLKVHNGISMPKHVTFY
partner: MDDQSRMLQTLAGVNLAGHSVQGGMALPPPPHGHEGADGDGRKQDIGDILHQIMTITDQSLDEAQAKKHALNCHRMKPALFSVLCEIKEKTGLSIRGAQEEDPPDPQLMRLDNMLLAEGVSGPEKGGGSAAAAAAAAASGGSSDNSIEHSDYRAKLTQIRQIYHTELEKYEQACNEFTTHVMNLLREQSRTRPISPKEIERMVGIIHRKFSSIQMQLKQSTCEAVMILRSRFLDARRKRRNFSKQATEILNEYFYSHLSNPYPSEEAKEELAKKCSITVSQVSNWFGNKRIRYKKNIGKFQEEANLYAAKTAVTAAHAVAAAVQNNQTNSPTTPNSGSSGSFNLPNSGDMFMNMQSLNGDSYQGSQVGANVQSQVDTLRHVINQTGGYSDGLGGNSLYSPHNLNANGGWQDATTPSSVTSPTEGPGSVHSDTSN
B7: Protein boule-like (Homo sapiens), Q8N9W6 (parent)
chain: MQTDSLSPSPNPVSPVPLNNPTSAPRYGTVIPNRIFVGGIDFKTNESDLRKFFSQYGSVKEVKIVNDRAGVSKGYGFVTFETQEDAQKILQEAEKLNYKDKKLNIGPAIRKQQVGIPRSSIMPAAGTMYLTTSTGYPYTYHNGVAYFHTPEVTSVPPPWPSRSVCSSPVMVAQPIYQQPAYHYQATTQYLPGQWQWSVPQPSASSAPFLYLQPSEVIYQPVEIAQDGGCVPPPLSLMETSVPEPYSDHGVQATYHQVYAPSAITMPAPVMQPEPIKTVWSIHY
partner: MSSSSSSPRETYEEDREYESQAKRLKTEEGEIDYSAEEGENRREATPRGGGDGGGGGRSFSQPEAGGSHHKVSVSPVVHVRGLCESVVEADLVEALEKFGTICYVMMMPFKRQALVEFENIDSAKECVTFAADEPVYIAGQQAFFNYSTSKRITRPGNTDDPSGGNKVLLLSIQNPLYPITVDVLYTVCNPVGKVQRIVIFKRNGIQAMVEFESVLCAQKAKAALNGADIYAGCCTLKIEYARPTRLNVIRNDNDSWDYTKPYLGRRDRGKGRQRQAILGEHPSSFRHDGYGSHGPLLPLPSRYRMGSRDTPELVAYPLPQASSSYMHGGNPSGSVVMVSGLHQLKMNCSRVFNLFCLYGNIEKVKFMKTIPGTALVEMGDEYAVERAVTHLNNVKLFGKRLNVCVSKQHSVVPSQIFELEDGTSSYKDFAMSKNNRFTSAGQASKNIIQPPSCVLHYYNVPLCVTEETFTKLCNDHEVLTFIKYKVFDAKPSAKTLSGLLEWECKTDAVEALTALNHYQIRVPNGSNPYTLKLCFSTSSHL
B8: Keratin, type II cytoskeletal 6A (Homo sapiens), P02538 (parent)
chain: MASTSTTIRSHSSSRRGFSANSARLPGVSRSGFSSVSVSRSRGSGGLGGACGGAGFGSRSLYGLGGSKRISIGGGSCAISGGYGSRAGGSYGFGGAGSGFGFGGGAGIGFGLGGGAGLAGGFGGPGFPVCPPGGIQEVTVNQSLLTPLNLQIDPTIQRVRAEEREQIKTLNNKFASFIDKVRFLEQQNKVLETKWTLLQEQGTKTVRQNLEPLFEQYINNLRRQLDSIVGERGRLDSELRGMQDLVEDFKNKYEDEINKRTAAENEFVTLKKDVDAAYMNKVELQAKADTLTDEINFLRALYDAELSQMQTHISDTSVVLSMDNNRNLDLDSIIAEVKAQYEEIAQRSRAEAESWYQTKYEELQVTAGRHGDDLRNTKQEIAEINRMIQRLRSEIDHVKKQCANLQAAIADAEQRGEMALKDAKNKLEGLEDALQKAKQDLARLLKEYQELMNVKLALDVEIATYRKLLEGEECRLNGEGVGQVNISVVQSTVSSGYGGASGVGSGLGLGGGSSYSYGSGLGVGGGFSSSSGRAIGGGLSSVGGGSSTIKYTTTSSSSRKSYKH

Variants of: B1
Settings: with zn266_human ZNF266, Q14584

Row | Variant | effect of a mutation on the interaction
1 | A89V | with no effect

Variants of: B2
Settings: with dnal4_human DNAL4, O96015

Row | Variant | effect of a mutation on the interaction
2 | N33S | with no effect

Variants of: B3
Settings: with nck2_human NCK2, O43639
Chain of nck2_human NCK2, O43639 (O43639 whole entry): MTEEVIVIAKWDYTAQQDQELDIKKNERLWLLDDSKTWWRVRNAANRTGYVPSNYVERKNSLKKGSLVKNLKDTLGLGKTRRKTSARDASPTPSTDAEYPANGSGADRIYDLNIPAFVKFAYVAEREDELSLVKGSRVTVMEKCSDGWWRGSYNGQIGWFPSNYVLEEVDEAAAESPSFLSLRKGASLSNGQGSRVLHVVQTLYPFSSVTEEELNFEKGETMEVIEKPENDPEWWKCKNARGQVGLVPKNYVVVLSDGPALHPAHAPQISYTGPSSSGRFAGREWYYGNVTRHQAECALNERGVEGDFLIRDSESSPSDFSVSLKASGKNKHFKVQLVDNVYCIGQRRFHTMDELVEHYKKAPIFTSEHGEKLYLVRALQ

Row | Variant | effect of a mutation on the interaction
3 | R156Q | with no effect

Variants of: B4
Settings: with gstk1_human GSTK1, Q9Y2Q3

Row | Variant | effect of a mutation on the interaction
4 | R23H | with no effect

Variants of: B5
Settings: with 1433s_human SFN

Row | Variant | effect of a mutation on the interaction
5 | N155T | with no effect

Variants of: B6
Settings: with pbx3_human PBX3, P40426

Row | Variant | effect of a mutation on the interaction
6 | E720K | with no effect
7 | K333T | with no effect

Variants of: B7
Settings: with hnrll_human HNRNPLL

Row | Variant | effect of a mutation on the interaction
8 | M270I | with no effect
9 | V78I | with no effect
10 | S9Y | with no effect

Variants of: B8
Settings: with KRT17, Q04695
Chain of KRT17, Q04695 (Q04695 whole entry): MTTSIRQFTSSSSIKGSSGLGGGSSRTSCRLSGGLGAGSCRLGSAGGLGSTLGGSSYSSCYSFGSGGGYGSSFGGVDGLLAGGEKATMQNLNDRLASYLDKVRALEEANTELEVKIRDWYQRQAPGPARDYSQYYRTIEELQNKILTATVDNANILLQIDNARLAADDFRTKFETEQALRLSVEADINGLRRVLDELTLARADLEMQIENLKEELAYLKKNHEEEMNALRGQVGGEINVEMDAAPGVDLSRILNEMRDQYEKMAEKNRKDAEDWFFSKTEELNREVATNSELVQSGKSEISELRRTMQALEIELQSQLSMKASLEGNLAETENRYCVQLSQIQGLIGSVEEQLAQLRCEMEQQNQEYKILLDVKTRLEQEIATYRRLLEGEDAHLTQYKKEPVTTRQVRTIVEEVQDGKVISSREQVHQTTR

Row | Variant | effect of a mutation on the interaction
11 | T552S | with no effect
12 | L210M | with no effect
13 | R415H | with no effect
14 | A335T | with no effect
15 | R559G | with no effect

Variants of: B8
Settings: with tfp11_human TFIP11, Q9UBB9
Chain of tfp11_human TFIP11, Q9UBB9 (Q9UBB9 whole entry): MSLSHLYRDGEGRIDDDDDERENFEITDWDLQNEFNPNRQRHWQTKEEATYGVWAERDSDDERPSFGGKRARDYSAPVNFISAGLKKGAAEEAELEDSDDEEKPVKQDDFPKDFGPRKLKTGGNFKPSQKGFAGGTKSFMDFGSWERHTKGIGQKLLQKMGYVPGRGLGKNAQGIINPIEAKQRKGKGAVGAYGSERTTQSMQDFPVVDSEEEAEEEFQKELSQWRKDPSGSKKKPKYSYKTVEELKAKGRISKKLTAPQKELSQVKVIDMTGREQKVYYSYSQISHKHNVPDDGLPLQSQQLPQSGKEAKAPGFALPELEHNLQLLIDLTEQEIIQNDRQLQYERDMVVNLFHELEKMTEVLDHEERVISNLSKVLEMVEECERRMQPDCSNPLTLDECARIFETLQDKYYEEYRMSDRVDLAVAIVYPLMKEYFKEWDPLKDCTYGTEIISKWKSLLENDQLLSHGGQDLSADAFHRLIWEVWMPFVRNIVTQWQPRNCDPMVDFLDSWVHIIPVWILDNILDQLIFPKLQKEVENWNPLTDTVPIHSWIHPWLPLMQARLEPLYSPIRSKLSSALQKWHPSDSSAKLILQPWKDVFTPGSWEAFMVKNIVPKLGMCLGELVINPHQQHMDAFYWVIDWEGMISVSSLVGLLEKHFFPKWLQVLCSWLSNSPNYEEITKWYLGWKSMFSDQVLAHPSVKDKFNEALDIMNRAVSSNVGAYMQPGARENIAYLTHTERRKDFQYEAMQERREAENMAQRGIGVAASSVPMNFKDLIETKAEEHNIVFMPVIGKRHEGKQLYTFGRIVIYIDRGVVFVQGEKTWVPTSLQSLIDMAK

Row | Variant | effect of a mutation on the interaction
16 | T552S | with no effect
17 | L210M | with no effect
18 | R415H | with no effect
19 | A335T | with no effect
20 | R559G | with no effect

Variants of: B8
Settings: with KRT15, P19012
Chain of KRT15, P19012 (P19012 whole entry): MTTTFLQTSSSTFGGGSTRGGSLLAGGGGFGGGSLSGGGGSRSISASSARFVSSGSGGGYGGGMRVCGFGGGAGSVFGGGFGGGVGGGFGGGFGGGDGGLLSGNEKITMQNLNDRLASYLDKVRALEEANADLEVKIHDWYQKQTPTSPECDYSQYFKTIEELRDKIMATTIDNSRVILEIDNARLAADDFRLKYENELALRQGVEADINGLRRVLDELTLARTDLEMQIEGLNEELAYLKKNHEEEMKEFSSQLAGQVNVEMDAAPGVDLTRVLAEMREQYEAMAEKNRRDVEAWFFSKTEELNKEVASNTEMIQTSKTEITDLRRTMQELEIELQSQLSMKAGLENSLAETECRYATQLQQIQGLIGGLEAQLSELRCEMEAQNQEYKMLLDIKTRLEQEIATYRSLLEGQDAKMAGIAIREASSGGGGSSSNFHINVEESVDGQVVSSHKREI

Row | Variant | effect of a mutation on the interaction
21 | T552S | with no effect
22 | L210M | with no effect
23 | R415H | with no effect
24 | A335T | with no effect
25 | R559G | with no effect
